Assay results reported in patent publication US20240317840A1.

How the values were obtained:
[1] = biological target: HBsAg of HBV genotype D, serotype ayw (Hepatitis B virus); assay: cell-based or functional assay
[2] = biological target: HBsAg AD serotype (Hepatitis B virus); assay: SPR epitope binning; competitor (1st, saturating Ab): HBC34 (self)
[3] = biological target: HBsAg AY serotype (Hepatitis B virus); assay: as above
[4] = biological target: HBsAg AD serotype (Hepatitis B virus); assay: SPR epitope binning; competitor (1st, saturating Ab): NOV3540
[5] = biological target: HBsAg AY serotype (Hepatitis B virus); assay: as above
[6] = biological target: HBsAg AD serotype (Hepatitis B virus); assay: SPR epitope binning; competitor (1st, saturating Ab): NOV3842
[7] = biological target: HBsAg AY serotype (Hepatitis B virus); assay: as above
[8] = biological target: HBsAg AD serotype (Hepatitis B virus); assay: SPR epitope binning; competitor (1st, saturating Ab): CR8087
[9] = biological target: HBsAg AY serotype (Hepatitis B virus); assay: as above
[10] = biological target: HBsAg AD serotype (Hepatitis B virus); assay: SPR epitope binning; competitor (1st, saturating Ab): NOV3841
[11] = biological target: HBsAg AY serotype (Hepatitis B virus); assay: as above
[12] = biological target: HBsAg AD serotype (Hepatitis B virus); assay: SPR epitope binning; competitor (1st, saturating Ab): NOV3832
[13] = biological target: HBsAg AY serotype (Hepatitis B virus); assay: as above

Row | binding of second antibody (% of its binding as first antibody) [2] | binding of second antibody (% of its binding as first antibody) [3] | binding of second antibody (% of its binding as first antibody) [4] | binding of second antibody (% of its binding as first antibody) [5] | binding of second antibody (% of its binding as first antibody) [6] | binding of second antibody (% of its binding as first antibody) [7] | binding of second antibody (% of its binding as first antibody) [8] | binding of second antibody (% of its binding as first antibody) [9] | binding of second antibody (% of its binding as first antibody) [10] | binding of second antibody (% of its binding as first antibody) [11] | binding of second antibody (% of its binding as first antibody) [12] | binding of second antibody (% of its binding as first antibody) [13] | Substance | Virus neutralization EC50 [1] [nM]
1 | – | – | – | – | – | – | – | – | – | – | – | – | Neg. Control (antibody) | > 500
2 | 0 | 0 | 121 | 131 | 121 | 134 | 146 | 166 | 124 | 151 | 126 | 257 | HBC34 (antibody) | –
